Results reported in the supplement of paper PMC9170038.

Test system: MS2 coat protein
Experiment: apparent KD of MS2 coat protein; designed switch direction (-1 OFF switch, 1 ON switch): -1; higher = weaker reporter binding
Procedure, shortened: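 The reported apparent KD is a per-design median over clusters, from curve fits of normalised cluster fluorescence. Protein titrations used SNAP-549-labelled MS2 coat protein, doubled from 0.7 or 1.5 nM to 3 µM, in Tris-HCl pH 7.5 buffer with KCl, MgCl2, BSA, DTT, tRNA and Tween-20, with no input, 200 uM small-molecule ligand, or an oligonucleotide input. The RNA switches were transcribed on Illumina chips by stalled E. coli RNA polymerase.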

[1] = Eterna round: R95, input ligand: microRNA oligo, concentration not stated
[2] = Eterna round: R95, input ligand: FMN 200 uM
[3] = Eterna round: R95, input ligand: none
[4] = input ligand: microRNA oligo, concentration not stated

Sequence | apparent KD of MS2 coat protein [1] | apparent KD of MS2 coat protein [2] | apparent KD of MS2 coat protein [3] | apparent KD of MS2 coat protein (input ligand: FMN 200 uM) | apparent KD of MS2 coat protein [4] | apparent KD of MS2 coat protein (input ligand: none)
GUGCAAUGAGGAUAUACGUAGGUGAAAAUCUGUGUGCUCCUACAUGAGGAUCACCCAUGUAGAAGGCAUGUCAC [LRO-Excl2-16] (puzzle: Exclusion 2) | 16 nM | – | – | – | – | –
AGUACUAACACGAAAGUGUUAGUACAAUAAGCUAGUGGAACAUGAGGAUCACCCAUGUCCUCAUUAGCUCGUCUUGU [Mat - Sensor v3 - Turn-off var 2 - D39] (puzzle: Sensor v3, turn-off variant 2) | 34.8 nM | 16.2 nM | 12.5 nM | – | – | –
GGUGUCUUCAGAAGACAUGAGGAUCACCCAUGUAAAUGCACUGAGGAUAUACGGGCGACCGGCGUGUAGAAGGUAGAGCACGAA [Bivezale] (Eterna round: R96, puzzle: Exclusion NG 3) | – | – | – | 13.7 nM | 8.37 nM | 17.5 nM
CAACUGUGAGGAUAUGGUGAGUAGUGCCUGAGCGCUGCUCACCAGAAGGCACAUGAGGAUCACCCAUGUAUGAC [JL-ex4-2.02 denovo] (puzzle: Exclusion 4) | 38.3 nM | – | – | – | – | –
CAGUACUGAGGAUAUACAUGAGGAUCACCCAUGUGUUCCUGCUAGGAAACUAGCAAAAGUAGAAGGCAGUACUG [salish99_ex3_r3_098x] (Eterna round: R96, puzzle: Exclusion 3) | – | – | – | 516 nM | 26.1 nM | 27.5 nM
CAGCUGUCAGGAUAUCGUGCAUACAACGAAAGUUCUAUGUGCGAGAAGGGACAUGAGGAUCACCCAUGUUUCCG [Omei Ex4 A23] (Eterna round: R97, puzzle: Exclusion 4) | – | – | – | 21.1 nM | – | 16.1 nM
GGAGCGAUUCUCUUAGCUGACAUGAGGAUCACCCAUGUAUGCAAGCUCUUAUUUUGCUCGUCUUACCGGGAAUUGCU [Uslainar] (puzzle: Sensor v3, turn-off variant 1) | 18.5 nM | 14.8 nM | 13.2 nM | – | – | –
UACUUCUGAGGAUAUACAUAGAUUUACAUGAGGAUCACCCAUGUUCCUCUUUGUAUAAAUGUAGAAGGCAGAAGAU [Mat - Exclusion 5 - JL Mod - D74] (Eterna round: R97, puzzle: Exclusion 5) | – | – | – | 95.6 nM | – | 231 nM
UGAGCAUCAGGAUAUACAAGGCGACCGUGAGGUCGAAGGUUACAUGAGGAUCACCCAUGUAGAAGGGAUGUUCU [jl-ex2-4.11] (Eterna round: R97, puzzle: Exclusion 2) | – | – | – | 49.4 nM | – | 25.4 nM
AAAGGGAAUGAGGAUAUCGUAUUGGAUAUAGUGCGAGAAGGCAUUACAUGAGGAUCACCCAUGUUUUGUUGGGA [JR_Ex6_Sub006] (Eterna round: R97, puzzle: Exclusion 6) | – | – | – | 74.4 nM | – | 33.9 nM
UUUAAUUUUUUUUUUUUACAAGCUUUUUGCUCGUCUUAUACAUGAGGAUCACCCAUGUAGGUGGGAGGUAAAUUAUC [JMF 79] (puzzle: Sensor v3, turn-off variant 2) | 116 nM | 40.8 nM | 43.8 nM | – | – | –
CCGCUGUGAGGAUAUUAGUAGUAGUCAGAAAAGACUAUUACUGAGAAGGCACAUGAGGAUCACCCAUGUUGCGG [Mat - Exclusion 4 - Eli Mod - D48] (Eterna round: R97, puzzle: Exclusion 4) | – | – | – | 33.9 nM | – | 38.2 nM
GCCAGAGCAGGAUAUUGAUAAAUUCACAUGAGGAUCACCCAUGUCCAGCGAAAGCUGGAACGAGAAGGGCUCUGGC [Mat - Exclusion 5 - Eli mod - D87] (puzzle: Exclusion 5) | 13.3 nM | 11.7 nM | 13.7 nM | – | – | –
ACUCCUCCUGUUAGGAUAUGCAUCGGGCUUCCGCAGCAGAAGGAACAUGAGGAUCACCCAUGUCAAAUAAAAUC [Inxebexe] (Eterna round: R96, puzzle: Brourd's mod of Exclusion 4) | – | – | – | 153 nM | 20.7 nM | 26.9 nM
UGUCUGUCAGGAUAUUCGAGUUCGAGUGAAAGCUUGAGCUUGAAGAAGGGACAUGAGGAUCACCCAUGUGGACG [-28.5, -27.4 kcal, A 27%, 1bis-(ca)1] (Eterna round: R97, puzzle: Exclusion 4) | – | – | – | 87.8 nM | – | 50.1 nM
GUGGGUUACAUGAGGAUCACCCAUGUAUAGUGGGAAAAAAUAUAGGAUAUAAUAUAAAAAUUAUAUUAGAAGGAUAGAGACUAG [AK ExNG3-1] (Eterna round: R96, puzzle: Exclusion NG 3) | – | – | – | 419 nM | 216 nM | 418 nM
CUCCAGCAAGGAUAUACGUGUCUAAGAAGAGGUCUUAUGCUACAUGAGGAUCACCCAUGUAGAAGGUGCGGACA [EX2 C.2] (Eterna round: R97, puzzle: Exclusion 2) | – | – | – | 14.4 nM | – | 15.4 nM

Sequence | apparent KD of MS2 coat protein [1] | apparent KD of MS2 coat protein [2] | apparent KD of MS2 coat protein [3] | apparent KD of MS2 coat protein (input ligand: FMN 200 uM) | apparent KD of MS2 coat protein [4] | apparent KD of MS2 coat protein (input ligand: none)
ACAUGUCAUCGAGGAUAUUGGACACAUGAGGAUCACCCAUGUACCCGGAGGCUUUACUAUGAGUUCGAGAAGGCGAUGUACAUG [Ex NG2 #73] (Eterna round: R96, puzzle: Exclusion NG 2) | – | – | – | 83.7 nM | 42.4 nM | 54.6 nM
UUUUUGUAUGAAGGAUAUACUUAACAUGAGGAUCACCCAUGUGGUGUUGUGAGUGAGUGAGUUUAGUAGAAGGUCAAUUCUUUU [JMF's solution 88] (Eterna round: R96, puzzle: Exclusion NG 2) | – | – | – | 604 nM | 275 nM | 454 nM
GCAUGGUGAGGAUAUGCAGAAGGGCAACGGUCAUCAUGACUACAUGAGGAUCACCCAUGUAGAAGGCACACAUG [Betearor] (puzzle: Exclusion 2) | 42.5 nM | – | – | – | – | –
CGUGACUCAGGAUAUGUAUUAUAUCACAUGAGGAUCACCCAUGUCCAGCGAAAGCUGGAGGCAGAAGGGAGUCACG [Fiskers Ex 5 - 47] (puzzle: Exclusion 5) | 87.6 nM | 41.4 nM | 106 nM | – | – | –
GCACGGAGUGUAGGAUAUUAGUGCGAUUAGCACUGAGAAGGACAUGAGGAUCACCCAUGUUCCUCAAUAAAAUACCUUCCGUGC [Eli exng1 - 040] (Eterna round: R96, puzzle: Exclusion NG 1) | – | – | – | 13.4 nM | 10 nM | 13.7 nM
GAUCUGACAGGAUAUACAUGAGGAUCACCCAUGUACGAGCUAGCGAAAGCUAGCUCAGGUAGAAGGGUCAGAUC [Ex3 dot plot directed v5] (puzzle: Exclusion 3) | 11.6 nM | – | – | – | – | –
AGUUGGCGAGGAUAUACAUGAGGAUCACCCAUGUGAGAGAUACUAGUGAGGUCGAUUAGUAGAAGGCGCUGACG [Mat - Exclusion 3 - Mod of JL D76] (puzzle: Exclusion 3) | 25.3 nM | 1170 nM | 49.3 nM | – | – | –
ACUAGAUGAGGAUAUACACAUUUUAGUGUUCCUCUAGAUUAACAUGAGGAUCACCCAUGUAGAAGGCAUCAAUU [Exclusion 2 - 11] (Eterna round: R96, puzzle: Exclusion 2) | – | – | – | 294 nM | 52.8 nM | 63 nM
AGUGGGCUAGGAUAUCGAUGAACUCACAUGAGGAUCACCCAUGUGUCUUCGGUGGGCUCACGAGAAGGAGUAAGUU [Teanislaa] (puzzle: Exclusion 5) | 15.7 nM | – | – | – | – | –
GCCGAAAAAGUGAGGAUAUACCUAUGGAAACAUAGGUAGAAGGCACAUGAGGAUCACCCAUGUAUCCUAACGGC [Mat - Exclusion 4 - Eli Mod - D28] (Eterna round: R97, puzzle: Brourd's mod of Exclusion 4) | – | – | – | 268 nM | – | 28.5 nM
UGUUUAUAUGAAGGAUAUACUUAACAUGAGGAUCACCCAUGUGGUGUUGUGAGUGAGUGAGUUUAGUAGAAGGUCAAUGAUUUU [JMF's solution 75] (Eterna round: R96, puzzle: Exclusion NG 2) | – | – | – | 1030 nM | 200 nM | 333 nM
UCGCUCCGUGUAGGAUAUCGUUGUACCCUGCGGCGAGAAGGACAUGAGGAUCACCCAUGUAUGUUAUUAUCACGCGUGGCGCAA [Design 69] (Eterna round: R96, puzzle: Exclusion NG 1) | – | – | – | 15.9 nM | 13.4 nM | 18.3 nM
UUAAAUCAUGUAGGAUAUGCGUGGCGAAGCUAUGCAGAAGGACAUGAGGAUCACCCAUGUUCUUCGGUCUGCGUACAGAUCGAA [JL ENG1 1.07] (Eterna round: R96, puzzle: Exclusion NG 1) | – | – | – | 316 nM | 20.6 nM | 26.8 nM
CCUAUGUGAGGAUAUGGUGUUGGCCACAAGGAAAAGCUCCUCCAGAAGGCACAUGAGGAUCACCCAUGUCGUGG [Jolly's Folly 25 - Jieux - Exclusion 4] (Eterna round: R96, puzzle: Exclusion 4) | – | – | – | 212 nM | 48.2 nM | 61.1 nM
ACUAGGCGAGGAUAUACAUGCUUAACGCAGGAAAAGCUGCGACAUGAGGAUCACCCAUGUAGAAGGCGCAAAUA [Xege] (Eterna round: R96, puzzle: Exclusion 2) | – | – | – | 78.1 nM | 14.6 nM | 20 nM
UGCAAGCUUUAAAGAUCCUACAUGAGGAUCACCCAUGUGCUCGUCUUAUAACGUACUGUGACGAAAGUCACGGUACG [JL TOV1 3.96] (Eterna round: R97, puzzle: Sensor, turn-off variant 1) | – | – | – | 324 nM | – | 315 nM
CUUUUGUGAGGAUAUCAGUAGUAAUAAAAUAAAAUAACUACUGAGAAGGCACAUGAGGAUCACCCAUGUUCCUC [Mat - Exclusion 4 - Mod of Salish - D72] (puzzle: Exclusion 4) | 30 nM | – | – | – | – | –
